In PMC2734569, “Functional mapping of the fission yeast DNA polymerase δ B-subunit Cdc1 by site-directed and random pentapeptide insertion mutagenesis” (BMC Molecular Biology, 2009):
Residue numbers refer to the chain shown, from its start.

How the values were obtained:
Assay in all cases: two-hybrid; LexA-Cdc1 bait (pBTM116 or pBTM116BN) with Gal4-Pol3 prey and co-expressed c-myc-tagged Cdc27 (pAA-Cdc27) in S. cerevisiae CTY10-5d; ONPG liquid culture beta-galactosidase assay, mean of triplicates, as percent of wild-type Cdc1
Details in all cases: partners not purified
Cdc1-A5 = target: T1, Cdc1-A5 (Schizosaccharomyces pombe, UniProt P87324 1-462, Asn328Ala)
T1 construct: Cdc1, S. pombe, point mutant; source: yeast two-hybrid fusion, in S. cerevisiae CTY10-5d
T1 sequence (looked up): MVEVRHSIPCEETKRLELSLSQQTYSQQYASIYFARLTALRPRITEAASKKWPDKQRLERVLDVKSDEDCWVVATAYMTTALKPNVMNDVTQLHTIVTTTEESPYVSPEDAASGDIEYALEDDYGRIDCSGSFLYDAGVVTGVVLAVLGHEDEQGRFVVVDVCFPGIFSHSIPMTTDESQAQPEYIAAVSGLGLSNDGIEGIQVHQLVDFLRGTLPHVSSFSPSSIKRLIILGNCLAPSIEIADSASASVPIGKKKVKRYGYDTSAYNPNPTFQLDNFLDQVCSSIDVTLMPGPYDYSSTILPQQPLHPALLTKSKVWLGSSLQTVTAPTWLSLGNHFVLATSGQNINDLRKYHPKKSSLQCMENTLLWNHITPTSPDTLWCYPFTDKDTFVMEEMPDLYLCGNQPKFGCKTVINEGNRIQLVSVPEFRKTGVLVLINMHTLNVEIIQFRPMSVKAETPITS

Cdc1-J22 = target: T2, Cdc1-J22 (Schizosaccharomyces pombe, UniProt P87324 1-462, Arg-GlyValProLeuArg-Gly)
T2 construct: Cdc1, S. pombe, with a pentapeptide inserted after residue 212; source: yeast two-hybrid fusion, in S. cerevisiae CTY10-5d
T2 sequence (looked up): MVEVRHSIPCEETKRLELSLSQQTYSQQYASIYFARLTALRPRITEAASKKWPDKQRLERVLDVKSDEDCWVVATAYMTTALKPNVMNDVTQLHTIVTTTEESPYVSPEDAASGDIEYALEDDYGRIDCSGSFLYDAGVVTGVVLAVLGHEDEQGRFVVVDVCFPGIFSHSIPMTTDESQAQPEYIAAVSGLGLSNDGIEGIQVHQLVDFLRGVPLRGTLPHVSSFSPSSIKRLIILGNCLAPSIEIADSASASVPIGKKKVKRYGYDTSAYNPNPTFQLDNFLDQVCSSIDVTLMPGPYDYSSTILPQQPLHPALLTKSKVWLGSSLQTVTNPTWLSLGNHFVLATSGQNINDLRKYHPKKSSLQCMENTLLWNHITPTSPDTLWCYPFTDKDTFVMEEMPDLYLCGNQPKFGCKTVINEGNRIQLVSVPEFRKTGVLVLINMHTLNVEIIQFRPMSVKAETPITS

Cdc1-A10 = target: T3, Cdc1-A10 (Schizosaccharomyces pombe, UniProt P87324 1-462, Asn328Ala | Pro329Ala)
T3 construct: Cdc1, S. pombe, double point mutant (A5 and A6 combined); source: yeast two-hybrid fusion, in S. cerevisiae CTY10-5d
T3 sequence (looked up): T1 sequence (looked up) with P329A

[1] = target: T4, Cdc1 (fission yeast DNA polymerase delta B-subunit), wild type (Schizosaccharomyces pombe, UniProt P87324 1-462)
T4 construct: DNA polymerase delta B-subunit Cdc1, S. pombe; cdc1+ cDNA on a 1.5 kb BamHI fragment from pBTM116-Cdc1, ORF 1386 bp; also called WT; LexA-Cdc1; source: yeast two-hybrid fusion, in S. cerevisiae CTY10-5d
T4 sequence (looked up): T1 sequence (looked up) with A328N

B1: Pol3 (fission yeast DNA polymerase delta catalytic subunit) (natural protein, Schizosaccharomyces pombe, UniProt P30316 1-1086, looked up)
chain: MTDRSSNEGVVLNKENYPFPRRNGSIHGEITDVKRRRLSERNGYGDKKGSSSKEKTSSFEDELAEYASQLDQDEIKSSKDQQWQRPALPAINPEKDDIYFQQIDSEEFTEGSVPSIRLFGVTDNGNSILVHVVGFLPYFYVKAPVGFRPEMLERFTQDLDATCNGGVIDHCIIEMKENLYGFQGNEKSPFIKIFTTNPRILSRARNVFERGEFNFEELFPVGVGVTTFESNTQYLLRFMIDCDVVGMNWIHLPASKYQFRYQNRVSNCQIEAWINYKDLISLPAEGQWSKMAPLRIMSFDIECAGRKGVFPDPSIDPVIQIASIVTQYGDSTPFVRNVFCVDTCSQIVGTQVYEFQNQAEMLSSWSKFVRDVDPDVLIGYNICNFDIPYLLDRAKSLRIHNFPLLGRIHNFFSVAKETTFSSKAYGTRESKTTSIPGRLQLDMLQVMQRDFKLRSYSLNAVCSQFLGEQKEDVHYSIITDLQNGTADSRRRLAIYCLKDAYLPQRLMDKLMCFVNYTEMARVTGVPFNFLLARGQQIKVISQLFRKALQHDLVVPNIRVNGTDEQYEGATVIEPIKGYYDTPIATLDFSSLYPSIMQAHNLCYTTLLDSNTAELLKLKQDVDYSVTPNGDYFVKPHVRKGLLPIILADLLNARKKAKADLKKETDPFKKAVLDGRQLALKVSANSVYGFTGATNGRLPCLAISSSVTSYGRQMIEKTKDVVEKRYRIENGYSHDAVVIYGDTDSVMVKFGVKTLPEAMKLGEEAANYVSDQFPNPIKLEFEKVYFPYLLISKKRYAGLFWTRTDTYDKMDSKGIETVRRDNCPLVSYVIDTALRKMLIDQDVEGAQLFTKKVISDLLQNKIDMSQLVITKALSKTDYAAKMAHVELAERMRKRDAGSAPAIGDRVAYVIIKGAQGDQFYMRSEDPIYVLENNIPIDAKYYLENQLSKPLLRIFEPILGEKASSLLHGDHTRTISMAAPSVGGIMKFAVKVETCLGCKAPIKKGKTALCENCLNRSAELYQRQVAQVNDLEVRFARLWTQCQRCQGSMHQDVICTSRDCPIFYMRIAEHKKLQQSVDLLKRFDEMSW
notes: DNA polymerase delta catalytic subunit Pol3, S. pombe; prey plasmid named pACT-Pol3 in the results and pGAD2F-Pol3 in the methods; also called Gal4-Pol3; pACT-Pol3; source: yeast two-hybrid fusion, in S. cerevisiae CTY10-5d
- two-hybrid beta-galactosidase activity, % of wild-type Cdc1 (Cdc1-A5): 4%
- two-hybrid beta-galactosidase activity, % of wild-type Cdc1 (Cdc1-J22): 25%
- two-hybrid beta-galactosidase activity, % of wild-type Cdc1 (Cdc1-A10): < 1%
- two-hybrid beta-galactosidase activity, % of wild-type Cdc1 [1]: 100%
